These results are taken from doi:10.1101/2020.01.13.903898 (bioRxiv, 2020).

In series [1] the target is zebrafish PATZ1 BTB domain (residues 1-135) (zebrafish (Danio rerio)). Nature of the series: SEC. (SEC sorts molecules by how far they enter the pores of the column.)
The series “SEC” deals with the molecule itself. Kind of series: SEC.

As a reminder, the stoichiometry N is the number of molecules, sites or subunits per partner or assembly. For the molecule “zebrafish PATZ1 BTB domain (residues 1-135) (domain or fragment)”, the stoichiometry N in series [1] amounted to 2.

B1: mouse PATZ1 BTB domain (residues 12-166) (domain or fragment)
chain: SGCYTYQVSRHSTEMLHNLNQQRKNGGRFCDVLLRVGDESFPAHRAVLAACSEYFESVFSAQLGDGGAADGGPADVGGAAAAPGGGAGGSRELEMHTISSKVFGDILDFAYTSRIVVRLESFPELMTAAKFLLMRSVIEICQEVIKQSNVQILVP
Take B1: the “stoichiometry N” value in the series “SEC” amounted to 2.
